The results in this text go back to PMC10397247.

In one test the target is T1, 4H348-bN.
T1 chain: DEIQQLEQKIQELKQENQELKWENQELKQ
Nature of the test: two-hybrid library CCNG1.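 Also: natural log of median RNA to DNA barcode read ratio; higher means stronger binding.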

For the next test, the target named is T2, 4H40-bN.
T2 chain: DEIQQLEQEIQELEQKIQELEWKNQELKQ
Nature of the test: two-hybrid library CCNG1.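 Also: natural log of median RNA to DNA barcode read ratio; higher means stronger binding.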

In another test the target is T3, O13-bS.
T3 chain: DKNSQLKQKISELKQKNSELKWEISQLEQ
Briefly: two-hybrid library CCNG1.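 Also: natural log of median RNA to DNA barcode read ratio; higher means stronger binding.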

The target in the next test is T4, 4H319-bN.
T4 chain: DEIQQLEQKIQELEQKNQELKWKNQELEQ
Nature of the test: two-hybrid library CCNG1.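 Also: natural log of median RNA to DNA barcode read ratio; higher means stronger binding.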

For a further test, the target named is T5, 4H3277-bN.
T5 chain: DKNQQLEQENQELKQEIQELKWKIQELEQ
Briefly: two-hybrid library CCNG1.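 Also: natural log of median RNA to DNA barcode read ratio; higher means stronger binding.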

In another test the target is T6, 4H492-bN.
T6 chain: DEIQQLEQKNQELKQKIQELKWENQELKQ
Briefly: two-hybrid library CCNG1.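 Also: natural log of median RNA to DNA barcode read ratio; higher means stronger binding.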

The target in another test is T7, 4H741-bN.
T7 chain: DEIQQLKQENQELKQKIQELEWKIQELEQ
Nature of the test: two-hybrid library CCNG1.

For a further test, the target named is T8, 4H477-bN.
T8 chain: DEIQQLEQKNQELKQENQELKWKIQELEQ
Nature of the test: two-hybrid library CCNG1.

The target of a further test is T9, P6SHb.
T9 chain: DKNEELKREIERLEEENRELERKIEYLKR
Briefly: two-hybrid library CCNG1.

A further test concerns the target T10, P7SHb.
T10 chain: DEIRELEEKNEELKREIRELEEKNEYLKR
Nature of the test: two-hybrid library CCNG1.

For the next test, the target named is T11, P4SHb.
T11 chain: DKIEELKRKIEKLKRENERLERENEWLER
Nature of the test: two-hybrid library CCNG1.

Another test deals with T12, P8SHb.
T12 chain: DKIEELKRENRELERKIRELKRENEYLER
Nature of the test: two-hybrid library CCNG1.

The next test concerns the target T13, P9SHb.
T13 chain: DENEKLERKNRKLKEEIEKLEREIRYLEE
Nature of the test: two-hybrid library CCNG1.

A further test addresses T14, P3SHb.
T14 chain: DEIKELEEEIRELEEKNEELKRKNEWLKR
Briefly: two-hybrid library CCNG1.

The next test has as its target T15, P5SHb.
T15 chain: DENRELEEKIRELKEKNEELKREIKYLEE
Briefly: two-hybrid library CCNG1.

The next test deals with T16, O5-bS.
T16 chain: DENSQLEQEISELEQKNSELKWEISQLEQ
Nature of the test: two-hybrid library CCNG1.

A further test has as its target T17, O3-bS.
T17 chain: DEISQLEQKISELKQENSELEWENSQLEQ
Briefly: two-hybrid library CCNG1.

A further test has as its target T18, O4-bS.
T18 chain: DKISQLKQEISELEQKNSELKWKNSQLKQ
Briefly: two-hybrid library CCNG1.

A further test addresses T19, O9-bS.
T19 chain: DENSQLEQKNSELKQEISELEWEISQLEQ
Briefly: two-hybrid library CCNG1.

For the next test, the target named is T20, O16-bS.
T20 chain: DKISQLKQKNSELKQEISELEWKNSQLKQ
Nature of the test: two-hybrid library CCNG1.

The next test concerns the target T21, O15-bS.
T21 chain: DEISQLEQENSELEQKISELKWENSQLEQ
Nature of the test: two-hybrid library CCNG1.

In another test the target is T22, O6-bS.
T22 chain: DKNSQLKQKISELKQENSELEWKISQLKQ
Nature of the test: two-hybrid library CCNG1.

The target in a further test is T23, O8-bS.
T23 chain: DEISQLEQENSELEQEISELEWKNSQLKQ
Briefly: two-hybrid library CCNG1.

The target in another test is T24, O2-bS.
T24 chain: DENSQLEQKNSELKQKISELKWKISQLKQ
Nature of the test: two-hybrid library CCNG1.

Another test concerns the target T25, O7-bS.
T25 chain: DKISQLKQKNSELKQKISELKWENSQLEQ
Briefly: two-hybrid library CCNG1.

The target of another test is T26, N6-AA.
T26 chain: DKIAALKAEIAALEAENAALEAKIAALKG
Nature of the test: two-hybrid library CCmax.

A further test has as its target T27, 4H2621-AA.
T27 chain: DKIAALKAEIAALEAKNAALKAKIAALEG
Briefly: two-hybrid library CCmax. The settings on record: mean of both orientations.

The target in another test is T28, 4H235-AA.
T28 chain: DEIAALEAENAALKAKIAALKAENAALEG
Nature of the test: two-hybrid library CCmax. As to conditions: mean of both orientations.

The next test addresses T29, 4H1449-AA.
T29 chain: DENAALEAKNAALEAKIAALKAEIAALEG
Briefly: two-hybrid library CCmax.

The target of a further test is T30, 4H3915-AA.
T30 chain: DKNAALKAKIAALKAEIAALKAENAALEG
Briefly: two-hybrid library CCmax. The settings on record: mean of both orientations.

The target of a further test is T31, 4H2580-AA.
T31 chain: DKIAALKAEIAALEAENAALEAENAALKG
Briefly: two-hybrid library CCmax. The settings on record: mean of both orientations.

Another test concerns the target T32, 4H249-AA.
T32 chain: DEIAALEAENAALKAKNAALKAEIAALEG
Briefly: two-hybrid library CCmax. As to conditions: mean of both orientations.

A further test concerns the target T33, 4H446-AA.
T33 chain: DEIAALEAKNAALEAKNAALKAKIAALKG
Nature of the test: two-hybrid library CCmax. As to conditions: mean of both orientations.

For another test, the target named is T34, 4H3094-AA.
T34 chain: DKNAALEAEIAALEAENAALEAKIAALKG
Briefly: two-hybrid library CCmax. The settings on record: mean of both orientations.

The target of the next test is T35, 4H3619-AA.
T35 chain: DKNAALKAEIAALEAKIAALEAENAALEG
Nature of the test: two-hybrid library CCmax. The settings on record: mean of both orientations.

A further test deals with T36, 4H1593-AA.
T36 chain: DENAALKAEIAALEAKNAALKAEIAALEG
Briefly: two-hybrid library CCmax. The settings on record: mean of both orientations.

The target in a further test is T37, 4H2903-AA.
T37 chain: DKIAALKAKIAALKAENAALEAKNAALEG
Nature of the test: two-hybrid library CCmax. As to conditions: mean of both orientations.

For another test, the target named is T38, 4H432-AA.
T38 chain: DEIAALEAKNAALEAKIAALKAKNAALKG
Nature of the test: two-hybrid library CCmax. The settings on record: mean of both orientations.

A further test has as its target T39, 4H2604-AA.
T39 chain: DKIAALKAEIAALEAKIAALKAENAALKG
Briefly: two-hybrid library CCmax. The settings on record: mean of both orientations.

A further test concerns the target T40, 4H1878-AA.
T40 chain: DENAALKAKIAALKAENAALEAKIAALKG
Briefly: two-hybrid library CCmax. As to conditions: mean of both orientations.

The target in the next test is T41, 4H2961-AA.
T41 chain: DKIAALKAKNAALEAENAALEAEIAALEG
Briefly: two-hybrid library CCmax. The settings on record: mean of both orientations.

The target of another test is T42, 4H3049-AA.
T42 chain: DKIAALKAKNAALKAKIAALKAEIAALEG
Nature of the test: two-hybrid library CCmax. The settings on record: mean of both orientations.

Another test deals with T43, 4H3629-AA.
T43 chain: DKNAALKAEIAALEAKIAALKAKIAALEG
Briefly: two-hybrid library CCmax. As to conditions: mean of both orientations.

A further test addresses T44, 4H2760-AA.
T44 chain: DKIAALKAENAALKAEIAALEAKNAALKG
Nature of the test: two-hybrid library CCmax. The settings on record: mean of both orientations.

For a further test, the target named is T45, 4H324-AA.
T45 chain: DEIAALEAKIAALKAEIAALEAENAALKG
Nature of the test: two-hybrid library CCmax. As to conditions: mean of both orientations.

In another test the target is T46, 4H3777-AA.
T46 chain: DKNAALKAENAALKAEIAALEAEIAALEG
Briefly: two-hybrid library CCmax. As to conditions: mean of both orientations.

A further test addresses T47, 4H341-AA.
T47 chain: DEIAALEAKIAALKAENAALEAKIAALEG
Nature of the test: two-hybrid library CCmax.

The target in the next test is T48, 4H380-AA.
T48 chain: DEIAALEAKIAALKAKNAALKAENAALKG
Nature of the test: two-hybrid library CCmax. As to conditions: mean of both orientations.

For the next test, the target named is T49, 4H3449-AA.
T49 chain: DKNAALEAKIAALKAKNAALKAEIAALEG
Briefly: two-hybrid library CCmax. As to conditions: mean of both orientations.

For the next test, the target named is T50, 4H3974-AA.
T50 chain: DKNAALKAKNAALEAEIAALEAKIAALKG
Briefly: two-hybrid library CCmax. The settings on record: mean of both orientations.

The target of another test is T51, 4H63-AA.
T51 chain: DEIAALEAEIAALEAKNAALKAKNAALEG
Nature of the test: two-hybrid library CCmax. As to conditions: mean of both orientations.

A further test addresses T52, 4H2947-AA.
T52 chain: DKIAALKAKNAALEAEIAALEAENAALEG
Nature of the test: two-hybrid library CCmax. As to conditions: mean of both orientations.

In another test the target is T53, 4H2774-AA.
T53 chain: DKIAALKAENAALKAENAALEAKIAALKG
Briefly: two-hybrid library CCmax. As to conditions: mean of both orientations.

As for DEIQQLEQKIQELEQKNQELKWKNQELEQ [4H319-bN], the interaction score with 4H348-bN was -1.38; with 4H40-bN, 0.382; in the test with O13-bS it was -2.53; with 4H319-bN it was -0.057; in the test with 4H3277-bN, -0.892; with 4H492-bN it was -0.916. Further, the interaction score with 4H741-bN was -0.781; with 4H477-bN, 0.197.

On to DEIKELEEEIRELEEKNEELKRKNEWLKR [P3SHb], for which the interaction score with P6SHb is 0.81; in the test with P7SHb, 0.504; with P4SHb, 1.16; in the test with P8SHb it was -0.0984; with P9SHb it was 0.0235; with P3SHb, 0.389. Besides, the interaction score with P5SHb was determined as 0.636.

Consider DKNSQLKQKISELKQKNSELKWEISQLEQ [O13-bS], for which the interaction score with O5-bS was -2.23; with O3-bS it was -1.55; with O4-bS, -2.17; with O9-bS, -1.08; with O16-bS it was -1.78; in the test with O13-bS, -1.65. The interaction score in the test with O15-bS is -2.27; with O6-bS, -0.545; with O8-bS, -1.08; with O2-bS, -0.819; in the test with O7-bS, -1.16.

The molecule DKIAALKAEIAALEAENAALEAKIAALKG [N6-AA] yielded an interaction score with N6-AA of 1.66.

Consider DENAALEAKNAALEAKIAALKAEIAALEG [4H1449-AA], for which the interaction score with 4H2621-AA is -0.636; in the test with 4H235-AA it was -1.93; with 4H1449-AA, -0.875; with 4H3915-AA, -1.06; in the test with 4H2580-AA it was -0.863; with 4H249-AA, -1.66. The interaction score with 4H446-AA is -1.39; with 4H3094-AA, -1.53; in the test with 4H3619-AA, -1.1; with 4H1593-AA it was -1.66; with 4H2903-AA, -1.54; in the test with 4H432-AA, -1.57. Further, the interaction score with 4H2604-AA was -0.197; with 4H1878-AA, -1.34; with 4H2961-AA, -1.66; in the test with 4H3049-AA it was -0.585; with 4H3629-AA, -0.319; in the test with 4H2760-AA, -1.16. Moreover, the interaction score with 4H324-AA was -0.72; with 4H3777-AA, -0.635; with 4H341-AA, -1.74; in the test with 4H380-AA, -1.53; with 4H3449-AA, -1.65; with 4H3974-AA, 2.16. Further, the figures for the interaction score with 4H63-AA, in the test with 4H2947-AA and with 4H2774-AA were -1.09, -1.1 and -1.47, respectively.
